Assay results as given in IntAct's records for PubMed 37100772.

B1: Nucleoprotein (Zaire ebolavirus (strain Mayinga-76)), P18272 (parent)
chain: MDSRPQKIWMAPSLTESDMDYHKILTAGLSVQQGIVRQRVIPVYQVNNLEEICQLIIQAFEAGVDFQESADSFLLMLCLHHAYQGDYKLFLESGAVKYLEGHGFRFEVKKRDGVKRLEELLPAVSSGKNIKRTLAAMPEEETTEANAGQFLSFASLFLPKLVVGEKACLEKVQRQIQVHAEQGLIQYPTAWQSVGHMMVIFRLMRTNFLIKFLLIHQGMHMVAGHDANDAVISNSVAQARFSGLLIVKTVLDHILQKTERGVRLHPLARTAKVKNEVNSFKAALSSLAKHGEYAPFARLLNLSGVNNLEHGLFPQLSAIALGVATAHGSTLAGVNVGEQYQQLREAATEAEKQLQQYAESRELDHLGLDDQEKKILMNFHQKKNEISFQQTNAMVTLRKERLAKLTEAITAASLPKTSGHYDDDDDIPFPGPINDDDNPGHQDDDPTDSQDTTIPDVVVDPDDGSYGEYQSYSENGMNAPDDLVLFDLDEDDEDTKPVPNRSTKGGQQKNSQKGQHIEGRQTQSRPIQNVPGPHRTIHHASAPLTDNDRRNEPSGSTSPRMLTPINEEADPLDDADDETSSLPPLESDDEEQDRDGTSNRTPTVAPPAPVYRDHSEKKELPQDEQQDQDHTQEARNQDSDNTQSEHSFEEMYRHILRSQGPFDAVLYYHMMKDEPVVFSTSDGKEYTYPDSLEEEYPPWLTEKEAMNEENRFVTLDGQQFYWPVMNHKNKFMAILQHHQ
B2: Nucleoprotein (Zaire ebolavirus (strain Mayinga-76)), P18272 (parent)
chain: B1 chain
partner: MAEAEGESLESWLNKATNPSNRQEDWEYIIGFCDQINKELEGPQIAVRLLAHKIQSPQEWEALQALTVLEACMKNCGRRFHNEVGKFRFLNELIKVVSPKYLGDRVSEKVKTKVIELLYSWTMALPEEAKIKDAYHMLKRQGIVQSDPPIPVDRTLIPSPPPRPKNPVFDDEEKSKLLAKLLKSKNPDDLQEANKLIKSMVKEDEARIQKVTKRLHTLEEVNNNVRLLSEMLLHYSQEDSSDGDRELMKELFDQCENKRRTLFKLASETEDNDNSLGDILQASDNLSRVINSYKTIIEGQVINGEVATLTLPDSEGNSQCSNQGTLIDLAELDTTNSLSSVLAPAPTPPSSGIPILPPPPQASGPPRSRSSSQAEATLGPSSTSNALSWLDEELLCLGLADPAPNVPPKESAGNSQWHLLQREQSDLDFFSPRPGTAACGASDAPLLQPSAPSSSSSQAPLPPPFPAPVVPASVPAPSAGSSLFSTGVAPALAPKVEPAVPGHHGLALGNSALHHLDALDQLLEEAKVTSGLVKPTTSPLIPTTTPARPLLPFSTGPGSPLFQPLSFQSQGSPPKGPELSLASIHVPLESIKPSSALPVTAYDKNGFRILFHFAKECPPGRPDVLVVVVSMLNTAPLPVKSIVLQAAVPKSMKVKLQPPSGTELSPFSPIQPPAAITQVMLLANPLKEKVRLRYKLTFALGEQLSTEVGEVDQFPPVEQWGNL

Variants of: B1
Conditions: with ap2m1_human AP2M1, Q96CW1
Chain of ap2m1_human AP2M1, Q96CW1 (Q96CW1 whole entry): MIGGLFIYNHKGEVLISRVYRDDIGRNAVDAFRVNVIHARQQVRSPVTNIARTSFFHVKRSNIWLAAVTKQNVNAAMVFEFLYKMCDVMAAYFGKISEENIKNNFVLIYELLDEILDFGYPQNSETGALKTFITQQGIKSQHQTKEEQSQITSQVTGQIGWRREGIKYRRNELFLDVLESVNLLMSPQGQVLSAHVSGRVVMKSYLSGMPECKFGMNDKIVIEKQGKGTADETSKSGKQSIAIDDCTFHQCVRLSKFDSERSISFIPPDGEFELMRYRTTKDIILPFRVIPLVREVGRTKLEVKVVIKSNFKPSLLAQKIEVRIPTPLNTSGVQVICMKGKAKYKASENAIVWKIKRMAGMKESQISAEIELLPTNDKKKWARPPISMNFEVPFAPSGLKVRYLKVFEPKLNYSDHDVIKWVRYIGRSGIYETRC

Variant | effect of a mutation on the interaction
Y340A;L343A | with no effect

Variants of: B2
Conditions: with gga3_human GGA3, Q9NZ52

Variant | effect of a mutation on the interaction
Y469A | disrupting interaction strength
